The source of these data is patent publication US12269859B2, “Synthetic immune receptors and methods of use thereof” (Angeles Therapeutics, Inc., priority 2016, dated 2025).

In this assay the test system is target antigen-expressing cell line. Description: Jurkat NFAT-GFP assay, coculture with target cell lines expressing the respective target antigen (summary Table 10A). The assay is classed as cell-based, human. The arrangement: key: The signs +/−, +, 2+ etc. after the name of the cell lines indicate the relative degree of positivity on the Jurkat-NFAT-GFP assay as measured by the % GFP positive cells; +: relative degree of positivity on the Jurkat-NFAT-GFP assay as measured by the % GFP positive cells; 2+: relative degree of positivity on the Jurkat-NFAT-GFP assay as measured by the % GFP positive cells. The method in brief: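 Read-out: % GFP+ cells by FACS. SIR-transduced, puromycin-selected Jurkat NFAT-GFP (IL-2 promoter reporter) cocultured ~4–18 h with target line, E:T ~1:2; parental cells as control; graded +/−, +, 2+ relative to parental.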

B1: 041816-A03 (protein)
chain: MALPVTALLLPLALLLHAARPDIQMTQSPSSLSASLGERVSLTCRATQELSGYLSWLQQKPDGTIKRLIYAASTLDSGVPKRFSGNRSGSDYSLTISSLESEDFADYYCLQYAIYPYTFGGGTKLEIKLEDLKNVFPPEVAVFEPSEAEISHTQKATLVCLATGFYPDHVELSWWVNGKEVHSGVSTDPQPLKEQPALNDSRYCLSSRLRVSATFWQNPRNHFRCQVQFYGLSENDEWTQDRAKPVTQIVSAEAWGRADCGFTSESYQQGVLSATILYEILLGKATLYAVLVSALVLMAMVKRKDSRGRAKRSGSGATNFSLLKQAGDVEENPGPTSMDWIWRILFLVGAATGAHSFEEVQLQQSGPELVKPGASVKMSCKASGYTFTSYFIHWVKQKPGQGLEWIGFINPYNDGSKYNEKFKGKATLTSDKSSSTAYMELSSLTSEDSAVYYCTRDDGYYGYAMDYWGQGTSVTVSSTREQKLISEEDGSGTPFPSLAPPIMLLVDGKQQMVVVCLVLDVAPPGLDSPIWFSAGNGSALDAFTYGPSPATDGTWTNLAHLSLPSEELASWEPLVCHTGPGAEGHSRSTQPMHLSGEASTARTCPQEPLRGTPGGALWLGVLRLLLFKLLLFDLLLTCSCLCDPAGPLPSPATTTRLRALGSHRLHPATETGGREATSSPRPQPRDRRWGDTPPGRKPGSPVRAKRSGSGVKQTLNFDLLKLAGDVESNPGPSRGHMTEYKPTVRLATRDDVPRAVRTLAAAFADYPATRHTVDPDRHIERVTELQELFLTRVGLDIGKVWVADDGAAVAVWTTPESVEAGAVFAEIGPRMAELSGSRLAAQQQMEGLLAPHRPKEPAWFLATVGVSPDHQGKGLGSAVVLPGVEAAERAGVPAFLETSAPRNLPFYERLGFTVTADVEVPEGPRTWCMTRKPGA
modifications: Polynucleotide encoding a Synthetic Immune Receptor (SIR)
Consider B1, for which the “NFAT-GFP ASSAY Positive Cell lines” value was “(+/−), L363 (+/−),” (coculture with L363 cells); “RAJI (+/−), U266” (coculture with RAJI cells); “(+/−), L363 (+/−),” (coculture with U266 cells).

B2: 041816-C01 (protein)
chain: MALPVTALLLPLALLLHAARPDTIVLTQSPASLAVSLGQRATISCRASESVDSYGNSFMHWYQQKPGQPPKLLIYLASNLESGVPARFSGSGSRTDFTLTIDPVEADDAATYYCQQNNYDPWTFGGGTKLEIKLEGKPIPNPLLGLDSTGSGEDLKNVFPPEVAVFEPSKAEIAHTQKATLVCLATGFYPDHVELSWWVNGKEVHSGVCTDPQPLKEQPALNDSRYCLSSRLRVSATFWQNPRNHFRCQVQFYGLSENDEWTQDRAKPVTQIVSAEAWGRADCGITSASYHQGVLSATILYEILLGKATLYAVLVSALVLMAMVKRKDSRGRAKRSGSGATNFSLLKQAGDVEENPGPTSMDWIWRILFLVGAATGAHSFEEVQLQQSGPELVKPGASVKMSCKASGYTFTSYVMHWVKQKPGQGLEWIGYINPYNDGTKYNEKFKGKATLTSDTSSSTAYMELNSLTSEDSAVYFCARPIYFDNDYFDYWGQGTTLKVSSTREQKLISEEDGSGTPFPSLAPPIMLLVDGKQQMVVVCLVLDVAPPGLDSPIWFSAGNGSALDAFTYGPSPATDGTWTNLAHLSLPSEELASWEPLVCHTGPGAEGHSRSTQPMHLSGEASTARTCPQEPLRGTPGGALWLGVLRLLLFKLLLFDLLLTCSCLCDPAGPLPSPATTTRLRALGSHRLHPATETGGREATSSPRPQPRDRRWGDTPPGRKPGSPVRAKRSGSGVKQTLNFDLLKLAGDVESNPGPSRGHMTEYKPTVRLATRDDVPRAVRTLAAAFADYPATRHTVDPDRHIERVTELQELFLTRVGLDIGKVWVADDGAAVAVWTTPESVEAGAVFAEIGPRMAELSGSRLAAQQQMEGLLAPHRPKEPAWFLATVGVSPDHQGKGLGSAVVLPGVEAAERAGVPAFLETSAPRNLPFYERLGFTVTADVEVPEGPRTWCMTRKPGA
modifications: Polynucleotide encoding a Synthetic Immune Receptor (SIR)
Take B2: the “NFAT-GFP ASSAY Positive Cell lines” value is, setting by setting: (coculture with L363 cells) “(+/−), L363 (+/−)”; (coculture with RAJI cells) “RAJI (+/−), U266”; (coculture with U266 cells) “(+/−), L363 (+/−)”.

B3: 041416-P02 (protein)
chain: MALPVTALLLPLALLLHAARPDIVMTQSQKSMSTSVGDRVSITCKASQDVITGVAWYQQKPGQSPKLLIYSASYRYTGVPDRFTGSGSGTDFTFTISNVQAEDLAVYYCQQHYSTPLTFGAGTKLELKLEGKPIPNPLLGLDSTGSGEDLKNVFPPEVAVFEPSKAEIAHTQKATLVCLATGFYPDHVELSWWVNGKEVHSGVCTDPQPLKEQPALNDSRYCLSSRLRVSATFWQNPRNHFRCQVQFYGLSENDEWTQDRAKPVTQIVSAEAWGRADCGITSASYHQGVLSATILYEILLGKATLYAVLVSALVLMAMVKRKDSRGRAKRSGSGATNFSLLKQAGDVEENPGPTSMDWIWRILFLVGAATGAHSFEQVQLQQPGAELVRPGASVKLSCKASGYSFTTYWMNWVKQRPGQGLEWIGMIHPSDSETRLNQKFKDKATLTVDKSSSTAYMQLSSPTSEDSAVYYCARSTMIATRAMDYWGQGTSVTVSSTREQKLISEEDGSGTPFPSLAPPIMLLVDGKQQMVVVCLVLDVAPPGLDSPIWFSAGNGSALDAFTYGPSPATDGTWTNLAHLSLPSEELASWEPLVCHTGPGAEGHSRSTQPMHLSGEASTARTCPQEPLRGTPGGALWLGVLRLLLFKLLLFDLLLTCSCLCDPAGPLPSPATTTRLRALGSHRLHPATETGGREATSSPRPQPRDRRWGDTPPGRKPGSPVRAKRSGSGVKQTLNFDLLKLAGDVESNPGPSRGHMTEYKPTVRLATRDDVPRAVRTLAAAFADYPATRHTVDPDRHIERVTELQELFLTRVGLDIGKVWVADDGAAVAVWTTPESVEAGAVFAEIGPRMAELSGSRLAAQQQMEGLLAPHRPKEPAWFLATVGVSPDHQGKGLGSAVVLPGVEAAERAGVPAFLETSAPRNLPFYERLGFTVTADVEVPEGPRTWCMTRKPGA
modifications: Polynucleotide encoding a Synthetic Immune Receptor (SIR)
As to B3, the “NFAT-GFP ASSAY Positive Cell lines” value is listed as “(+/−)” (coculture with L363 cells) and “U266 (+/−), L363” (coculture with U266 cells).

B4: 060616-K04 (protein)
chain: MALPVTALLLPLALLLHAARPDIQMTQSPSSLSASVGDRVTITCKASQDVGIAVAWYQQKPGKVPKLLIYWASTRHTGVPDRFSGSGSGTDFTLTISSLQPEDVATYYCQQYSSYPYTFGQGTKVEIKLEGKPIPNPLLGLDSTGSGEDLKNVFPPEVAVFEPSKAEIAHTQKATLVCLATGFYPDHVELSWWVNGKEVHSGVCTDPQPLKEQPALNDSRYCLSSRLRVSATFWQNPRNHFRCQVQFYGLSENDEWTQDRAKPVTQIVSAEAWGRADCGITSASYHQGVLSATILYEILLGKATLYAVLVSALVLMAMVKRKDSRGRAKRSGSGATNFSLLKQAGDVEENPGPTSMDWIWRILFLVGAATGAHSFEEVQLVESGGGLVQPGGSLRLSCAASGFDFSRYWMSWVRQAPGKGLEWIGEINPDSSTINYAPSLKDKFIISRDNAKNSLYLQMNSLRAEDTAVYYCARPDGNYWYFDVWGQGTLVTVSSTREQKLISEEDGSGIQNPDPAVYQLRDSKSSDKSVCLFTDFDSQTNVSQSKDSDVYITDKCVLDMRSMDFKSNSAVAWSNKSDFACANAFNNSIIPEDTFFPSSDVPCDVKLVEKSFETDTNLNFQNLSVIGFRILLLKVAGFNLLMTLRLWSSRAKRSGSGVKQTLNFDLLKLAGDVESNPGPSRGHMTEYKPTVRLATRDDVPRAVRTLAAAFADYPATRHTVDPDRHIERVTELQELFLTRVGLDIGKVWVADDGAAVAVWTTPESVEAGAVFAEIGPRMAELSGSRLAAQQQMEGLLAPHRPKEPAWFLATVGVSPDHQGKGLGSAVVLPGVEAAERAGVPAFLETSAPRNLPFYERLGFTVTADVEVPEGPRTWCMTRKPGA
modifications: Synthetic Immune Receptor (SIR)
For the molecule B4, where the note is “coculture with L363 cells”, the “NFAT-GFP ASSAY Positive Cell lines” value is recorded as “L363 (2+)”.

B5: 092216-G01 (protein)
chain: MALPVTALLLPLALLLHAARPLEGKPIPNPLLGLDSTGSGEDLKNVFPPEVAVFEPSKAEIAHTQKATLVCLATGFYPDHVELSWWVNGKEVHSGVCTDPQPLKEQPALNDSRYCLSSRLRVSATFWQNPRNHFRCQVQFYGLSENDEWTQDRAKPVTQIVSAEAWGRADCGITSASYHQGVLSATILYEILLGKATLYAVLVSALVLMAMVKRKDSRGRAKRSGSGATNFSLLKQAGDVEENPGPTSTMALPVTALLLPLALLLHAARPDIQMTQSPSSLSASLGERVSLTCRATQELSGYLSWLQQKPDGTIKRLIYAASTLDSGVPKRFSGNRSGSDYSLTISSLESEDFADYYCLQYAIYPYTFGGGTKLEIKGGGGSGGGGSGGGGSEVQLQQSGPELVKPGASVKMSCKASGYTFTSYFIHWVKQKPGQGLEWIGFINPYNDGSKYNEKFKGKATLTSDKSSSTAYMELSSLTSEDSAVYYCTRDDGYYGYAMDYWGQGTSVTVSSTREQKLISEEDGSGIQNPDPAVYQLRDSKSSDKSVCLFTDFDSQTNVSQSKDSDVYITDKCVLDMRSMDFKSNSAVAWSNKSDFACANAFNNSIIPEDTFFPSSDVPCDVKLVEKSFETDTNLNFQNLSVIGFRILLLKVAGFNLLMTLRLWSSRAKRSGSGVKQTLNFDLLKLAGDVESNPGPSRGHMTEYKPTVRLATRDDVPRAVRTLAAAFADYPATRHTVDPDRHIERVTELQELFLTRVGLDIGKVWVADDGAAVAVWTTPESVEAGAVFAEIGPRMAELSGSRLAAQQQMEGLLAPHRPKEPAWFLATVGVSPDHQGKGLGSAVVLPGVEAAERAGVPAFLETSAPRNLPFYERLGFTVTADVEVPEGPRTWCMTRKPGA
modifications: Synthetic Immune Receptor (SIR)
On to B5, for which the “NFAT-GFP ASSAY Positive Cell lines” value (coculture with HL60 cells) is “HL60 (+/−)”.
